A short description of the data set: protein stability index of a GFP-peptide fusion (GPS, HEK-293T) (PSI 1-6); higher = more stable. The conditions noted are these: c terminus: a fixed tail appended.

± gives the standard deviation.
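Also: 24-mer peptide tiles fused after GFP, lentivirally expressed, FACS-sorted into six equal bins by GFP/DsRed ratio, decoded by Illumina sequencing, PSI is the read-weighted mean bin number.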

On to SMSSRLSIYDNVPGSILYSSSGDL [DLC1], for which the protein stability index (treatment: DMSO) worked out at 3.24 ± 0.089 and the protein stability index (treatment: MLN4924 1 uM, 8 h) was determined as 3.13 ± 0.22. The corresponding values for TFQNSVFVATFLRYAVVLNATWLV [SCD] are 3.01 ± 0.34 and 3.43 ± 0.43.

Take EEAEELAKEMSVPFYTSRIDEVLL [GFOD1]: the protein stability index runs as follows: (treatment: DMSO) 3.83 ± 0.24; (treatment: MLN4924 1 uM, 8 h) 4.11 ± 0.33. The corresponding values for LAPPPLPLPAAAVVHVSFPEVTSA [ZBTB22] are 3.3 ± 0.3 and 3.73 ± 0.55. The corresponding values for VKGSRVTVMEKCSDGWWRGSYNGQ [NCK2] are 2.13 ± 0.47 and 2.29 ± 0.34. The corresponding values for FSLFGDISVLQQQGSLSNTYLSKV [FBXO33] are 2.12 ± 0.38 and 2.13 ± 0.096. Turning to HCLDQVGLFRKSGVKSRIQALRQM [DLC1], the protein stability index was determined as 2.48 ± 0.36 (treatment: DMSO) and 2.4 ± 0.25 (treatment: MLN4924 1 uM, 8 h). Take HPFLYLSLEISPQNVDVNVHPTKH [MLH1]: the protein stability index (treatment: MLN4924 1 uM, 8 h) is 2.37 ± 0.34. On to AANEQLTRAILRERICSEEERAKA [CHCHD3], for which the protein stability index is, setting by setting: (treatment: DMSO) 4.82 ± 0.23; (treatment: MLN4924 1 uM, 8 h) 4.97 ± 0.19.

For TELLAKITNTDVDCLKACQEQIEA [CCND2], the protein stability index is, setting by setting: (treatment: DMSO) 4.45 ± 0.046; (treatment: MLN4924 1 uM, 8 h) 4.61 ± 0.32. For LTINPAKRITASEALKHPWICQRS [CAMK2D] the same measures were 2.57 ± 0.1 and 2.72 ± 0.25. The corresponding values for PSEKKVAIIRTPPKSPATPKQLRL [MAP2] are 4.2 ± 0.15 and 4.28 ± 0.15. For DKLLKHMIIEHKIVIADVKLVADF [ZNF277] the same measures were 3.07 ± 0.33 and 2.82 ± 0.72.

On to GAGLPQFQSISLRKIQFNFPYFRS [CLCN6], for which the protein stability index (treatment: DMSO) amounted to 2.13 ± 0.26 and the protein stability index (treatment: MLN4924 1 uM, 8 h) came to 2.21 ± 0.41. For PRVLTLSERPLDFLDLERPPTTPQ [MFF] the same measures were 4.26 ± 0.19 and 4.53 ± 0.41. The corresponding values for RRNPELQEELQIQAAVAAGDVHTV [ASB7] are 4.85 ± 0.18 and 4.82 ± 0.16.

With QCNICGKCFSCNSNLHRHQRTHTG [ZNF263], the protein stability index amounted to 4.44 ± 0.13 (treatment: DMSO) and 4.63 ± 0.29 (treatment: MLN4924 1 uM, 8 h). As for ANAVISVSGINHDVTSGDHGDYFR [CPN1], the protein stability index is, setting by setting: (treatment: DMSO) 3.58 ± 0.13; (treatment: MLN4924 1 uM, 8 h) 3.48 ± 0.31. The corresponding values for FNFVSTPKCSCGQLAAVHLSKSRT [RNF180] are 2.14 ± 0.43 and 2.05 ± 0.26. VRVPNGGGGGGGLPISTVREVALL [CDK4]: the protein stability index is, setting by setting: (treatment: DMSO) 2.5 ± 0.33; (treatment: MLN4924 1 uM, 8 h) 2.63 ± 0.23. The corresponding values for LPEELRRLSGLSSVGHNWRKRMGT [C22orf15] are 2.99 ± 0.18 and 3.07 ± 0.22. The corresponding values for LDYYKTGIIRCPDGISIPELREAC [BTBD10] are 2.42 ± 0.34 and 2.5 ± 0.38. PPPCKFGEGKLSKRLKHKDDSVMK [C22orf31]: the protein stability index reads like this: (treatment: DMSO) 4.51 ± 0.15; (treatment: MLN4924 1 uM, 8 h) 4.61 ± 0.06. For IGWKTVRMYPFQIHSIALSTFASL [CDS2] the same measures were 2.69 ± 0.65 and 2.65 ± 0.45. On to ENKENEAFEFKKPVRPVSRGCLHS [CDC25A], for which the protein stability index is, setting by setting: (treatment: DMSO) 3.87 ± 0.7; (treatment: MLN4924 1 uM, 8 h) 3.73 ± 0.52. For PDVLRTKPAFIGKTNLDGMITVQL [PTPRD] the same measures were 2.52 ± 0.53 and 2.13 ± 0.57. Sequence QPKKLHLCPLCGKNFSNNSNLIRH [ZNF263] returned a protein stability index (treatment: DMSO) of 3.02 ± 0.39 and a protein stability index (treatment: MLN4924 1 uM, 8 h) of 3.37 ± 0.64. The corresponding values for HRILLLAISLTKCLESTKLLADLK [MIA2] are 2.73 ± 0.35 and 3.339 ± 0.011. The corresponding values for MCLFLQSLRQKQPERLCSGPGIVG [GMPPB] are 2.27 ± 0.41 and 2.17 ± 0.46.

For the origin of these results see the supplement of paper PMC10567573.
